{"source": "patent US20250019652A1", "about": "“PRODUCTION METHOD FOR SHEET-LIKE RETINAL TISSUE” (RIKEN, priority 2021, published 2025)", "type_in_all_cases": "cell-based, human", "key": {"[1]": {"tested_on": "Rx::Venus-sorted NR cells on Transwell (KhES-1-derived)", "experiment": "Effect of FGF8 at preparation into sheet again, microscopy and FACS (Example 20)", "experimental": "The aggregates (NR) of Day 24 from initiation of the suspension culture prepared in Example 1 were washed with PBS, and a neuronal cell dispersion solution (manufactured by FUJIFILM Wako Pure Chemical Corp.) was added. After incubation at 37° C., they were dispersed into single cells by pipetting, and sorting was carried out with Rx::Venus as an index using Cell sorter ARIAII (Becton, Dickinson and Company). […] As a control, a group that was not supplemented with FGF8 (FGF8−) was also established.\nMedium replacement was carried out once every 3 to 4 days. FGF8 was also added at the time of medium replacement. Sheets after a lapse of differentiation for 63 days and 40 days after reseeding were observed under a fluorescence stereo microscope (FIGS. 60 and 61). For FACS analysis, the aggregates of Differentiation Day 64 and Day 41 after reseeding were washed with PBS and dispersed into single cells using a neuronal cell dispersion solution (manufactured by FUJIFILM Wako Pure Chemical Corp.). Then, formaldehyde fixation was performed using Fixation buffer (Becton, Dickinson and Company).\nThereafter, after fixation using Fixation buffer (Becton, Dickinson and Company) and washing with Perm/Wash buffer (Becton, Dickinson and Company), staining was performed with anti-CHX10-Alexa Fluor 647 conjugate antibody (Santa Cruz Biotechnology), anti-Sox2-BV421 conjugate antibody (BioLegend, Inc.), anti-Ki67 antibody (Becton, Dickinson and Company), and anti-CRX-Alexa Fluor 647 conjugate antibody (Santa Cruz Biotechnology). After washing of the antibodies with Perm/Wash buffer (Becton, Dickinson and Company), measurement was performed using FACSCantoII (BD Biosciences), and analysis was conducted using FlowJo. As a control, neural retinal tissue having the same number of differentiation days that was not reorganized was also established (FIG. 62)."}, "[2]": {"tested_on": "sorted or unsorted dispersed NR cells (KhES-1 Rx::Venus)", "experiment": "Aggregate reforming by addition of FGF8 and retinal differentiation, microscopy and FACS (Example 19)", "experimental": "The aggregates (NR) of Day 24 from initiation of the suspension culture prepared in Example 1 were washed with PBS, and a neuronal cell dispersion solution (manufactured by FUJIFILM Wako Pure Chemical Corp.) was added. After incubation at 37° C., they were dispersed into single cells by pipetting, and sorting was carried out with Rx::Venus as an index using Cell sorter ARIAII (Becton, Dickinson and Company). The cells after sorting were seeded at 2.0 to 5.0×10^4 cells per well to a low adhesive V plate. As controls, a group that was not supplemented with FGF8 (FGF8−) and a group that was not sorted (unsorted) were also established.\nMedium replacement was carried out once every 3 to 4 days. FGF8 was also added at the time of medium replacement. […] RPE cells were partially observed in the sorted FGF8− group.\nFurther, the aggregates of Culture Day 54 for aggregate reforming (Day 30 after reseeding) were washed with PBS and dispersed into single cells using a neuronal cell dispersion solution (manufactured by FUJIFILM Wako Pure Chemical Corp.). Then, formaldehyde fixation was performed using Fixation buffer (Becton, Dickinson and Company). Thereafter, after washing with Perm/Wash buffer (Becton, Dickinson and Company), staining was performed with anti-CHX10-Alexa Fluor 647 conjugate antibody (Santa Cruz Biotechnology), anti-Sox2-BV421 antibody (BioLegend, Inc.), anti-Ki67-Alexa Fluor 647 conjugate antibody (Becton, Dickinson and Company), and anti-CRX-Alexa Fluor 647 conjugate antibody (Santa Cruz Biotechnology). After washing of the antibodies with Perm/Wash buffer (Becton, Dickinson and Company), measurement was performed using FACSCantoII (BD Biosciences), and analysis was conducted using FlowJo. As a control, neural retinal tissue having the same number of differentiation days that was not reorganized was also established."}, "[3]": {"tested_on": "Rx::Venus-sorted cells (KhES-1-derived NR, Day 25)", "experiment": "Search of factor that maintains property of retina at preparation into sheet again (Example 18)", "set-up": "expression intensity of Rx::Venus, concentration dependency: dose or concentration left out as unconfirmed", "conditions": "for expression intensity of Rx::Venus: compared with PBS control, 10 days after seeding", "experimental": "The aggregates (NR) of Day 25 from initiation of the suspension culture prepared in Example 1 were washed with PBS, and a neuronal cell dispersion solution (manufactured by FUJIFILM Wako Pure Chemical Corp.) was added. After incubation at 37° C., they were dispersed into single cells by pipetting, and sorting was carried out with Rx::Venus as an index using Cell sorter ARIAII (Becton, Dickinson and Company).\n3 days after seeding, the medium was similarly replaced so as to maintain the concentrations of the low-molecular compounds or the proteins described in Tables 1 and 2. […] 10 days after seeding, fixation was performed in 4% PFA, and the evaluation of the cells after sorting was conducted with Rx::Venus as an index under a fluorescence microscope (BZ-X810 manufactured by Keyence Corp.)."}, "[4]": {"tested_on": "CD39-sorted cells of Islet-1 KO KhES-1-derived aggregates (NR)", "experiment": "Islet-1 KO hESC-retina sheet prepared by sorting with CD39 and addition of FGF8 (Example 26)", "conditions": "50 ng/mL FGF8; Day 73", "experimental": "For aggregates differentiated with 300 nM SAG at the start of suspension culture (at the start of differentiation, dd0), the aggregates (NR) of Day 25 from initiation of the suspension culture were dispersed into single cells and stained at 37° C. for 15 minutes using anti-CD39-APC conjugate antibody (Miltenyi Biotec). Then, sorting was carried out with CD39-APC as an index using Cell sorter ARIAII (Becton, Dickinson and Company). The cells after sorting were seeded at 8.0×10^5 cells per well into 12-well Transwell coated with collagen gel. […] As a control, a group that was not supplemented with FGF8 (FGF8−) was also established.\nMedium replacement was carried out once every 3 to 4 days. FGF8 was also added at the time of medium replacement."}, "[5]": {"tested_on": "KhES-1 Rx::Venus aggregates", "experiment": "Differentiation with or without BMP4: retinal tissue versus brain organoid (Example 23)", "conditions": "group supplemented with BMP4", "experimental": "Human ES cells (KhES-1 strain (Non Patent Literature 3)) genetically engineered so as to have Rx::Venus reporter gene were cultured under feeder-free conditions in accordance with the method described in “Scientific Reports 4, 3594 (2014)”. As a feeder-free medium, StemFit medium (trade name: AK03N, manufactured by Ajinomoto Co., Inc.) was used, and as a scaffold in place of feeder cells, Laminin511-E8 (trade name, manufactured by Nippi, Inc.) was used. 300 nM SAG was added at the start of suspension culture (at the start of differentiation), and brain organoid was prepared on Day 3 from initiation of the suspension culture without adding BMP4. As a control, a group supplemented with BMP4 was established. Fluorescence microscope observation was performed as to the brain organoid of Day 26 from initiation of the suspension culture prepared in this way (FIG. 70). […] Further, these aggregates were fixed in 4% PFA. Sections were prepared and stained with DAPI and anti-FoxG1 antibody (Takara Bio Inc.), and observation was performed under a fluorescence microscope (BZ-X810 manufactured by Keyence Corp.). […] On the other hand, in the group that was not supplemented with BMP4, FoxG1 positive was confirmed, and it was confirmed that brain organoid was differentiated (FIG. 71)."}, "[6]": {"conditions": "versus neural retinal tissue not reorganized"}, "[7]": {"conditions": "sorted group supplemented with FGF8"}}, "data": [{"molecule": "FGF8: fibroblast growth factor, FGF signaling pathway agonist (protein, UniProt P55075 23-233, looked up) Fibroblast growth factor 8: QEGPGRGPALGRELASLFRAGREPQGVSQQHVREQSLVTDQLSRRLIRTYQLYSRTSGKHVQVLANKRINAMAEDGDPFAKLIVETDTFGSRVRVRGAETGLYICMNKKGKLIAKSNGKGKDCVFTEIVLENNYTALQNAKYEGWYMAFTRKGRPRKGSKTRQHQREVHFMKRLPRGHHTTEQSLRFEFLNYPPFTRSLRGSQRTWAPEPR", "values": [{"measurement": "Rx::Venus positive rate (FACS)", "setting": "[1]; group supplemented with FGF8, Day 41 after reseeding", "value": "≥ 95", "unit": "%"}, {"measurement": "black RPE in sheet", "setting": "[1]; sheets supplemented with FGF8", "value": "hardly observed"}, {"measurement": "distribution of Rx::Venus-positive cells in sheet", "setting": "[1]; sorted then supplemented with FGF8, 40 days after reseeding", "value": "Rx::Venus-positive cells were uniformly present in the whole wells"}, {"measurement": "percentage of Chx10-positive and Sox2-positive neural retinal progenitor cells or Crx-positive photoreceptor progenitor cells", "setting": "[1]; [6]", "value": "equivalent as compared with neural retinal tissue"}, {"measurement": "percentage of Rx::Venus-positive and Ki67-positive proliferative retinal cells", "setting": "[1]; [6]", "value": "tended to be large as compared with neural retinal tissue"}, {"measurement": "percentage of Chx10-positive and Sox2-positive neural retinal progenitor cells", "setting": "[2]; [7]", "value": "high"}, {"measurement": "percentage of Crx-positive photoreceptor progenitor cells", "setting": "[2]; [7]", "value": "tended to be low"}, {"measurement": "RPE cells or Rx::Venus-negative masses", "setting": "[2]; sorted, FGF8+, Day 10 after reseeding", "value": "RPE cells or Rx::Venus-negative masses were not observed"}, {"measurement": "Rx::Venus positive rate (FACS)", "setting": "[2]; unsorted group supplemented with FGF8, Day 30 after reseeding", "value": "the Rx::Venus positive rate tended to be high"}, {"measurement": "Rx::Venus-negative cell masses or RPE cells", "setting": "[2]; unsorted, FGF8+, Day 10 after reseeding", "value": "these cell masses were observed to decrease"}, {"measurement": "expression intensity of Rx::Venus, concentration dependency", "setting": "[3]; FGF8", "value": "the highest expression intensity of Rx::Venus"}, {"measurement": "expression intensity of Rx::Venus", "setting": "[3]", "value": "high expression intensity of Rx::Venus"}, {"measurement": "distribution of Crx::Venus cell populations in sheet", "setting": "[4]", "value": "uniformly present"}]}, {"molecule": "FGF4: fibroblast growth factor, FGF signaling pathway agonist (protein, UniProt P08620 31-206, looked up) Fibroblast growth factor 4: APTAPNGTLEAELERRWESLVALSLARLPVAAQPKEAAVQSGAGDYLLGIKRLRRLYCNVGIGFHLQALPDGRIGGAHADTRDSLLELSPVERGVVSIFGVASRFFVAMSSKGKLYGSPFFTDECTFKEILLPNNYNAYESYKYPGMFIALSKNGKTKKGNRVSPTMKVTHFLPRL", "values": [{"measurement": "expression intensity of Rx::Venus", "setting": "[3]", "value": "high expression intensity of Rx::Venus"}]}, {"molecule": "BMP4: exogenous human recombinant BMP4, BMP signaling pathway agonist (protein, UniProt P12644 293-408, looked up) Bone morphogenetic protein 4: SPKHHSQRARKKNKNCRRHSLYVDFSDVGWNDWIVAPPGYQAFYCHGDCPFPLADHLNSTNHAIVQTLVNSVNSSIPKACCVPTELSAISMLYLDEYDKVVLKNYQEMVVEGCGCR", "values": [{"measurement": "FoxG1 staining", "setting": "[5]", "value": "FoxG1 was negative"}, {"measurement": "differentiated tissue (Rx::Venus)", "setting": "[5]; Day 26", "value": "Rx::Venus-positive retinal tissue was observed to be differentiated"}]}]}
